Where “and” joins values, the source holds several entries; their conditions need not be identical. Identical values can stand only once. Like-named read-outs stand apart in the source and are kept apart here.

Assay [1] addresses T1, FoxA, TonB-dependent ferrioxamine B transporter from Pseudomonas aeruginosa PAO1 (full-length) (Pseudomonas aeruginosa strain PAO1, UniProt Q9I116 1-820).
T1 sequence (looked up): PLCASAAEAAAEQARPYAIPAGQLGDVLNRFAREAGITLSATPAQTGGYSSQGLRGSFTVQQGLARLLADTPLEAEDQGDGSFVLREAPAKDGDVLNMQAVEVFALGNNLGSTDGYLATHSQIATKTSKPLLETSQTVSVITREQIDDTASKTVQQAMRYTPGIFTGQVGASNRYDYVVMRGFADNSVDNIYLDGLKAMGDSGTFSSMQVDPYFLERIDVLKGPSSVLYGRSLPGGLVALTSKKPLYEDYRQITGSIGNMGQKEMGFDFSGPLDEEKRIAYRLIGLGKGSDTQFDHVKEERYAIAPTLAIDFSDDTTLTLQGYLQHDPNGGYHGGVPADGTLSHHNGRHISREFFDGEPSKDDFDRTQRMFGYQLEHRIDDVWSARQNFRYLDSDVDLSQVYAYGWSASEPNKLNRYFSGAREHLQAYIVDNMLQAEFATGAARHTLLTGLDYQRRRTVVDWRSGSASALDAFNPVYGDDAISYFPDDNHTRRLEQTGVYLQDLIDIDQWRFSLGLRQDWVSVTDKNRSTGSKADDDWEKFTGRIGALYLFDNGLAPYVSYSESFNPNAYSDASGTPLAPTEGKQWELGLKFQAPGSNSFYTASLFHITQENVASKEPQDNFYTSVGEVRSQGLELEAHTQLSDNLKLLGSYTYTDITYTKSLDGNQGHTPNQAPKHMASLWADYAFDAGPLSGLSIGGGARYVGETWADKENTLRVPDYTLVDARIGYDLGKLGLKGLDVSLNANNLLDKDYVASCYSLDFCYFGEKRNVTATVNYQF
The assay is described as follows: ITC. In general terms: In ITC the heat of successive injections is recorded.

Assay [2] deals with T1, FoxA, TonB-dependent ferrioxamine B …. The assay is described as follows: ITC. This is another data set of the same source.

B1: C-terminal domain of TonB1 from Pseudomonas aeruginosa PAO1 (residues 251-340) (domain or fragment, Pseudomonas aeruginosa strain PAO1, UniProt Q51368 251-340, looked up)
chain: DSDIKPLRMDPPVYPRMAQARGIEGRVKVLFTITSDGRIDDIQVLESVPSRMFDREVRQAMAKWRFEPRVSGGKIVARQATKMFFFKIEK
The Kd is the constant that tells how readily two partners part at equilibrium. On to B1, for which the Kd in assay [1] is 107 ± 30 nM; in assay [2], 6 nM and 6 to 10 nM. In addition, the figures for the dH in assay [1] and in assay [2] were -11 ± 0.3 kcal/mol and -19.2 ± 0.4 kcal/mol, respectively.

(Values after publication doi:10.1101/621219 (bioRxiv, 2019).)
